According to ChEMBL document CHEMBL1141065, “Inhibition of mandelate racemase by the substrate-intermediate-product analogue 1,1-diphenyl-1-hydroxymethylphosphonate” (Bioorg Med Chem Lett, 2005):

What was measured:
Settings in all cases: Pseudomonas putida
[1] = substrate: O=C([O-])[C@H]([O-])c1ccccc1.[Mg+2]
Description: Michaelis-Menten constant of mandelate racemase was determined at pH 6.3

[2] = substrate: O=C([O-])[C@H]([O-])c1ccccc1.[Mg+2]; remark: listed apart in the source
Description: Michaelis-Menten constant of mandelate racemase was determined at pH 7.5

[3] = substrate: O=C([O-])[C@H]([O-])c1ccccc1.[Mg+2]; remark: listed apart in the source
Description: Michaelis-Menten constant of mandelate racemase was determined at pH 8.7

B1: Mandelate racemase (Pseudomonas putida), P11444 (protein)
chain: MSEVLITGLRTRAVNVPLAYPVHTAVGTVGTAPLVLIDLATSAGVVGHSYLFAYTPVALKSLKQLLDDMAAMIVNEPLAPVSLEAMLAKRFCLAGYTGLIRMAAAGIDMAAWDALGKVHETPLVKLLGANARPVQAYDSHSLDGVKLATERAVTAAELGFRAVKTKIGYPALDQDLAVVRSIRQAVGDDFGIMVDYNQSLDVPAAIKRSQALQQEGVTWIEEPTLQHDYEGHQRIQSKLNVPVQMGENWLGPEEMFKALSIGACRLAMPDAMKIGGVTGWIRASALAQQFGIPMSSHLFQEISAHLLAATPTAHWLERLDLAGSVIEPTLTFEGGNAVIPDLPGVGIIWREKEIGKYLV
Km [1]: 950 µM | Km [2]: 440 µM | Km [3]: 2020 µM
